Data reported in patent US20070105771A1 (Y S THERAPEUTICS, published 2007).
Where a chain is given by its changes, count along the chain named.

B1: Fab comprising X377 VL and CM03 VH (Fab, V domains shown)
VH: QVKLQESGPGLVQPSQTLSITCTVSGFSLTTYGVHWVRQSPGKGLEWLGVIWGGGRTDYDAAFISRLSISKDNSKSQVFFKMNSLQANDTAIYYCVRNRHDWFDYWGQGTTVTVSS
VL: EIELTQSPSSLSVSLGDRVTISCSASQDIRNNLNWYQQKPGQAPRLLIYYSSNLQTGVPARFSGSGSGTDFTLTISRLEPEDVAAYYCQQSIKLPFTFGSGTKVEIK
notes: Fab made in E. coli; also called X377 Fab
B2: Fab comprising X378 VL and CM03 VH (Fab, V domains shown)
VH: B1 VH
VL: DIEMTQSPSSLSASAGERVTISCRASQGIRNSLNWYQQKPGQAPRLLIYYSSNLQTGVPSRFSGSGSGTDFTLTISRLQAEDFATYYCQQSNKLPFTFGSGTKVEIK
notes: Fab made in E. coli
B3: Fab comprising X379 VL and CM03 VH (Fab, V domains shown)
VH: B1 VH
VL: DILLTQSPSSLSATPGERATITCRASQGIRNNLNWYQQKPGQAPRLLIYYSSNLQSGVPSRFSGSGSGTDFTLTISRLQPEDVAAYYCQQSIKLPFTFGSGTKVEIK
notes: Fab made in E. coli
B4: Fab comprising X381 VL and CM03 VH (Fab, V domains shown)
VH: B1 VH
VL: B1 VL with L15P, D28G, N32S, Q55H, E79Q, P80A, V83F, A85T, F96L
notes: Fab made in E. coli
B5: Fab comprising X376 VL and CM03 VH (Fab, V domains shown)
VH: B1 VH
VL: DILMTQSPSSLSASPGDRVTISCRASQDIRNNLNWYQQKPGQAPRLLIYYSSNLHSGVPDRFSGSGSGTDFTLTISRLEPEDFAAYYCQQSIKLPLTFGSGTKVEIK
notes: Fab made in E. coli
B6: Fab comprising X380 VL and CM03 VH (Fab, V domains shown)
VH: B1 VH
VL: B1 VL with L4M, L15A, D17E, V19A, N32S, Q55H, A85I, I92N, F96L
notes: Fab made in E. coli
B7: Fab comprising X387 VH and CM03 VL (Fab, V domains shown)
VH: EVQLVESGAELVQPGGSLRLTCKASGFTLNTYGVHWVRQAPGKGLEWMGVIWGGGRTDYDASFMSRVTISKDNSKNTAYLQLNSLRAEDTAVYYCTRSRHDWFDYWGQGTTVTVSS
VL: DIQMTQSPSSLSASLGDRVTITCSASQGIRNSLNWYQQKPDGAVKLLIYYSSNLHSGVPSRFSGSGSGTDFSLTISNLEPEDIATYYCQQSIKLPFTFGSGTKLEIK
notes: Fab made in E. coli
B8: Fab comprising X385 VH and CM03 VL (Fab, V domains shown)
VH: EVQLVQSGGGVKQPGETLRLTCTASGFSLTTYGVHWVRQAPGKGLEWVGVIWGDGRTDYDAAFMSRVTISKDTSKSTAYLQMNSLRAEDTAVYYCMRNRHDWFDYWGQGTTVTVSS
VL: B7 VL
notes: Fab made in E. coli
B9: Fab comprising X388 VH and CM03 VL (Fab, V domains shown)
VH: B8 VH with V11L, T21S, F27Y, V48M, A61S, A62S, M82L, M96T
VL: B7 VL
notes: Fab made in E. coli
B10: Fab comprising X384 VH and CM03 VL (Fab, V domains shown)
VH: B8 VH with Q6E, G9A, E16G, A78V
VL: B7 VL
notes: Fab made in E. coli
B11: Fab comprising X386 VH and CM03 VL (Fab, V domains shown)
VH: B8 VH with Q6E, G9A, K12E, E16G, V48M, K71R, M82L, M96V
VL: B7 VL
notes: Fab made in E. coli
B12: Fab X393 (X385 VH and X379 VL) (Fab, V domains shown)
VH: B8 VH
VL: B3 VL
notes: Fab made in E. coli
B13: Fab X390 (X385 VH and X376 VL) (Fab, V domains shown)
VH: B8 VH
VL: B5 VL
notes: Fab made in E. coli
B14: Fab X396 (X385 VH and X380 VL) (Fab, V domains shown)
VH: B8 VH
VL: B1 VL with L4M, L15A, D17E, V19A, N32S, Q55H, A85I, I92N, F96L
notes: Fab made in E. coli
B15: Fab X430 (X399 VH and X394 VL) (Fab, V domains shown)
VH: B8 VH with T30S, A78V
VL: B5 VL with H55Q, S56T, D60A
notes: also called Fab X429
B16: Fab X391 (X388 VH and X376 VL) (Fab, V domains shown)
VH: B8 VH with V11L, T21S, F27Y, V48M, A61S, A62S, M82L, M96T
VL: B5 VL
notes: Fab made in E. coli
B17: Fab X395 (X384 VH and X380 VL) (Fab, V domains shown)
VH: B8 VH with Q6E, G9A, E16G, A78V
VL: B1 VL with L4M, L15A, D17E, V19A, N32S, Q55H, A85I, I92N, F96L
notes: Fab made in E. coli
B18: Fab X399 (X399 VH and X380 VL) (Fab, V domains shown)
VH: B8 VH with T30S, A78V
VL: B1 VL with L4M, L15A, D17E, V19A, N32S, Q55H, A85I, I92N, F96L
notes: Fab made in E. coli
B19: Fab X431 (X420 VH and X380 VL) (Fab, V domains shown)
VH: B8 VH with Q6E, T30S, A78V
VL: B1 VL with L4M, L15A, D17E, V19A, N32S, Q55H, A85I, I92N, F96L
notes: also called Fab X420
B20: Fab X389 (X384 VH and X376 VL) (Fab, V domains shown)
VH: B8 VH with Q6E, G9A, E16G, A78V
VL: B5 VL
notes: Fab made in E. coli
B21: Fab X394 (X384 VH and X394 VL) (Fab, V domains shown)
VH: B8 VH with Q6E, G9A, E16G, A78V
VL: B5 VL with H55Q, S56T, D60A
notes: Fab made in E. coli
B22: Fab X392 (X384 VH and X379 VL) (Fab, V domains shown)
VH: B8 VH with Q6E, G9A, E16G, A78V
VL: B3 VL
notes: Fab made in E. coli
B23: rhuMAb 410 (antibody, human IgG1, V domains shown)
VH: B8 VH with V11L, T21S, F27Y, V48M, A61S, A62S, M82L, M96T
VL: DILMTQSPSSLSASPGDRVTISCRASQDIRNNLNWYQQKPGQAPRLLIYYSSNLHSGVPDRFSGSGSGTDFTLTISRLEPEDFAAYYCQQSIKLPLTFGSGTKVEIKR

molecular target: T1, Purified recombinant human CD26 (rhDipeptidyl peptidase IV), R&D Systems CAT #1180-SE (human, UniProt P27487 29-766); experiment: SPR (Biacore), Fab
T1 construct: Bought recombinant protein; also called hu-CD26; soluble human CD26
Protocol: (§1) Fabs produced in E. coli as described below were diluted in PBS in a concentration of ˜0.5 μM for the assay. A typical recording included a 3 minute period of injection of the Fab followed by a period of 15 minutes of dissociation, and analysis was performed based on the raw data of the binding curves accordingly.
The CD26 binding partner was as shown below.

T1 sequence (P27487 29-766 limits assumed): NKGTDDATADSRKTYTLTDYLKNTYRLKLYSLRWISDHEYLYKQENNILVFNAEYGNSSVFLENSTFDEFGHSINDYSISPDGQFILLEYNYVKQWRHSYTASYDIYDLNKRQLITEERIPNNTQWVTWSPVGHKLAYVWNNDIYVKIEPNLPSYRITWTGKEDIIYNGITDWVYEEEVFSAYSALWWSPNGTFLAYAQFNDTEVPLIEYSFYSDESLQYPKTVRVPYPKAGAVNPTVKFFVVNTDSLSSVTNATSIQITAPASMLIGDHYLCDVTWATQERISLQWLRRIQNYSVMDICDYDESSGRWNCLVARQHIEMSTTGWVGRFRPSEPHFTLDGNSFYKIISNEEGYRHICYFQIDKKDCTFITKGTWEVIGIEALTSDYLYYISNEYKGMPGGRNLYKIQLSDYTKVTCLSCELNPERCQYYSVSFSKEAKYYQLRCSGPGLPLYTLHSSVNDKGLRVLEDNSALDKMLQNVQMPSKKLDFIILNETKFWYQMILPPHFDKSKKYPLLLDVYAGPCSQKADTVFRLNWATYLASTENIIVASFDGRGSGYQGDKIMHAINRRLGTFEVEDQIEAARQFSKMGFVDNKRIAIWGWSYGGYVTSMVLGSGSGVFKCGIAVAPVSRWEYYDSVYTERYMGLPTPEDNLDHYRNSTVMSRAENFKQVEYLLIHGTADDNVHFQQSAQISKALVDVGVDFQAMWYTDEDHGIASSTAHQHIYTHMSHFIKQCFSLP

| Binder | Kd | koff | kon |
| --- | --- | --- | --- |
| B1 | 1.88 nM | 0.000596 s⁻¹ | 317000 M⁻¹ s⁻¹ |
| B2 | 2.92 nM | 0.00083 s⁻¹ | 285000 M⁻¹ s⁻¹ |
| B3 | 1.16 nM | 0.00067 s⁻¹ | 578000 M⁻¹ s⁻¹ |
| B4 | 2.1 nM | 0.000601 s⁻¹ | 293000 M⁻¹ s⁻¹ |
| B5 | 2.31 nM | 0.000596 s⁻¹ | 258000 M⁻¹ s⁻¹ |
| B6 | 2.33 nM | 0.000687 s⁻¹ | 294000 M⁻¹ s⁻¹ |

molecular target: T1, Purified recombinant human CD26 …; experiment: SPR (Biacore), Fab; remark: another data set of the same source
Protocol: as §1

| Binder | Kd | koff | kon |
| --- | --- | --- | --- |
| B7 | 51.1 nM | 0.01 s⁻¹ | 196000 M⁻¹ s⁻¹ |
| B8 | 1.47 nM | 0.000375 s⁻¹ | 256000 M⁻¹ s⁻¹ |
| B9 | 2.98 nM | 0.000698 s⁻¹ | 235000 M⁻¹ s⁻¹ |
| B10 | 1.19 nM | 0.000312 s⁻¹ | 262000 M⁻¹ s⁻¹ |
| B11 | 2.71 nM | 0.000498 s⁻¹ | 184000 M⁻¹ s⁻¹ |

molecular target: T1, Purified recombinant human CD26 …; experiment: SPR (Biacore), Fab; remark: another data set of the same source

| Binder | Kd | ratio of the Kd of CM03 Fab to the Kd of individual clone |
| --- | --- | --- |
| B1 | 1.9 nM |  |
| B2 | 2.9 nM |  |
| B3 | 1.2 nM |  |
| B4 | 2.1 nM |  |
| B5 | 2.3 nM |  |
| B6 | 2.3 nM |  |
| B7 | 51 nM |  |
| B8 | 1.5 nM |  |
| B12 | 0.33 nM | 4.94 |
| B13 | 0.96 nM | 1.7 |
| B14 | 2.53 nM |  |
| B15 | 1.19 nM | 1.37 |
| B16 | 2.12 nM |  |
| B17 | 3.26 nM | 0.5 |
| B9 | 3 nM |  |
| B18 | 2.85 nM |  |
| B10 | 1.2 nM |  |
| B19 | 0.92 nM |  |
| B11 | 2.7 nM |  |
| B20 | 0.38 nM | 4.29 |
| B21 | 0.58 nM | 2.81 |
| B22 | 0.24 nM | 6.79 |

molecular target: T1, Purified recombinant human CD26 …; experiment: SPR (Biacore), Fab; remark: another data set of the same source

| Binder | Kd |
| --- | --- |
| B12 | 0.33 nM |
| B13 | 0.96 nM |
| B14 | 2.53 nM |
| B15 | 1.19 nM |
| B16 | 2.12 nM |
| B17 | 3.26 nM |
| B18 | 2.85 nM |
| B19 | 0.92 nM |
| B20 | 0.38 nM |
| B21 | 0.58 nM |
| B22 | 0.24 nM |

molecular target: human CD26 on the cell surface (human, UniProt P27487 1-766); experiment: cell-based or functional assay
Sequence (P27487 whole entry): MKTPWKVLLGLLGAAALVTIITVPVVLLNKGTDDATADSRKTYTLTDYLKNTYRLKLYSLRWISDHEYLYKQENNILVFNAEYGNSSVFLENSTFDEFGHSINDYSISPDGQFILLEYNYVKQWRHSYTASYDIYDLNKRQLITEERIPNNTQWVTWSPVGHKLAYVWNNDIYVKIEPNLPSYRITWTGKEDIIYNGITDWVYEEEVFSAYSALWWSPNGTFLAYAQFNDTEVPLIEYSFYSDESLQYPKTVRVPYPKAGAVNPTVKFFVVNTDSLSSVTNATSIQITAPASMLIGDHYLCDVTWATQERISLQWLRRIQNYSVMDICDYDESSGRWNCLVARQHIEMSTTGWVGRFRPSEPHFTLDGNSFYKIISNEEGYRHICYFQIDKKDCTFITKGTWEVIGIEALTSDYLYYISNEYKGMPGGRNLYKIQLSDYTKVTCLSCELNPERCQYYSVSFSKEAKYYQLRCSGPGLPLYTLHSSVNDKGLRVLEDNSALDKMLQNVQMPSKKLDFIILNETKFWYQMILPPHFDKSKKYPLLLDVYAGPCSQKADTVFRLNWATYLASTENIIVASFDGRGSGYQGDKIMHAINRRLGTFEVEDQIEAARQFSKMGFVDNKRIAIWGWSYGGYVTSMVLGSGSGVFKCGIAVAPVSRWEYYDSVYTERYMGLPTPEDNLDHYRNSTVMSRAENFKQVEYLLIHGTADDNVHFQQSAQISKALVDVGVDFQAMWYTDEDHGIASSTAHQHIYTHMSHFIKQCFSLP

| Binder | percent inhibition, MTT assay, Jurkat CD26+ cells, 0.05 ug/ml | percent inhibition, MTT assay, Jurkat CD26+ cells, 0.25 ug/ml | percent inhibition, MTT assay, Jurkat CD26+ cells, 0.5 ug/ml | percent inhibition, MTT assay, Jurkat CD26+ cells, 2.5 ug/ml | percent inhibition, MTT assay, Jurkat CD26+ cells, 5 ug/ml |
| --- | --- | --- | --- | --- | --- |
| B23 | 4% | 10.7% | 14% | 27.5% | 33.5% |

molecular target: T1, Purified recombinant human CD26 …; experiment: SPR (Biacore), CD26 preoccupied by the Fab; competitor 14D10 ascites
Excerpt: A specificity analysis of selected Fabs comprising pairs of variant VH and VL sequences was done. […] The analysis was done using Biacore® as described in Example 1.

| Binder | percent decrease in binding of 14D10 to CD26 |
| --- | --- |
| B12 | ≥ 80% |
| B13 | ≥ 80% |
| B14 | ≥ 80% |
| B16 | ≥ 80% |
| B17 | ≥ 80% |
| B20 | ≥ 80% |
| B22 | ≥ 80% |
